# Results taken from paper doi:10.1101/2020.09.29.318410.
# Target: T4Lnano fusion protein (CBP - ER/K motif - T4L - linker - CaM)
# Test: crystal structure
substance,measurement,value
T4Lnano fusion protein (CBP - ER/K motif - T4L - linker - CaM),stoichiometry N,2
